The results in this text go back to patent US20250277030A1, “ANTI-NAPI2B ANTIBODIES AND METHODS OF USE” (Zymeworks BC Inc., priority 2022, published 2025).

The target of test [1] is T1, NaPi2b expressed on IGROV-1 cells (Homo sapiens, UniProt O95436).
T1 construct: IGROV-1 cells express endogenous NaPi2b at a high level; endogenous in cells; host or cells: IGROV-1
T1 sequence (O95436 1-690): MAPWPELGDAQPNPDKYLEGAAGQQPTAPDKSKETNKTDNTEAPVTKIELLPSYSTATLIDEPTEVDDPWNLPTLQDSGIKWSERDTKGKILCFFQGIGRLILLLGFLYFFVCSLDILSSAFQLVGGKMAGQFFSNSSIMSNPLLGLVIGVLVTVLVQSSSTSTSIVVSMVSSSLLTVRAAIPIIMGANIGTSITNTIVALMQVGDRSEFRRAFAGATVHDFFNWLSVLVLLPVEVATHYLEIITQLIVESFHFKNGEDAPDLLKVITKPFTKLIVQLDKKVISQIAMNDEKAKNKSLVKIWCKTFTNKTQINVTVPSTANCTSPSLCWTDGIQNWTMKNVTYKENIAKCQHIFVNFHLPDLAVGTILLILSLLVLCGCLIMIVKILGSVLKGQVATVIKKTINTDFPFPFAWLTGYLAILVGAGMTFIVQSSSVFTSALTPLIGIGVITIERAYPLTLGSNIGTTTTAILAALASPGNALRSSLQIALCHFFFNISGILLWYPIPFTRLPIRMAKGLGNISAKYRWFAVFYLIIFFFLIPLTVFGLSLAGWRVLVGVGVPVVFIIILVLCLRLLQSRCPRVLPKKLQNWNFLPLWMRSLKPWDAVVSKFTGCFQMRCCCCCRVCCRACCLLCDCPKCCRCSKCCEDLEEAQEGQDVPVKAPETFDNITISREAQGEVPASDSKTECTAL
The test is described as follows: Cellular binding of antibody and ADCs to IGROV-1 cells by flow cytometry (Example 14). The procedure: Briefly, HEK293-6e cells were transfected for ˜24 hours to transiently express human NaPi2b, cynomolgus or mouse NaPi2b, at 1 μg of DNA per 1 million cells. Following transfection, 50,000 cells per well were seeded in V-bottom 96-well plates and incubated with 200 nM of primary antibody for 18-24 hours at 4° C. to prevent internalization. Post-incubation, cells were washed and stained with anti-Human IgG Fc AF647 conjugate (Jackson Immuno Research Labs, West Grove, PA, Cat. No. 109-605-098, Lot. No. 124868) at 4° C. for 1 hour. Following staining and washing, fluorescence was detected by flow cytometry on BD LSRFortessa™ Cell Analyzer (BD Biosciences, Franklin Lake, NJ) with 10,000 minimum events collected per well. The AF647/APC-A GeoMean (fluorescence signal geometric mean, proportional to anti-Human AF647 binding) was calculated for the live singlet cell population for each primary antibody using FlowJo™ v8 software (BD Biosciences, Franklin Lake, NJ). The Bmax and Kd of each primary antibody were calculated using GraphPad Prism Version 9 (GraphPad Software, San Diego, CA)
The ability of ADCs to bind to cells expressing NaPi2b was assessed. ADCs of a representative humanized variant antibody, v29456 (H1L2), were prepared by conjugation to DL2 and DL1 as described in Example 11. Binding to endogenous high NaPi2b-expressing cell lines IGROV-1 and HCC-78 was assessed by flow cytometry according to methods described in Example 5.

Test [2] in a line: NS-ELISA non-specific binding, heparin. Conditions: mAb at 100 nM. The procedure:
(§1) The isoelectric point was measured by capillary isoelectric focusing (cIEF), the propensity for self-aggregation was measured by Affinity-capture self-interaction nanoparticle spectroscopy (AC-SINS) and non-specific binding was measured by NS-ELISA, as described below.
(§2) NS-ELISA was used to measure the propensity of the antibodies to bind to a range of biomolecules to emulate the undesirable non-specific interactions to biological matrices in vivo as described below.
(§3) NS-ELISA was carried out in Corning®96-well EIA/RIA Easy Wash™ Clear Flat Bottom Polystyrene High Bind Microplate coated overnight at 4° C. with 50 μL of Heparin (Sigma, H3149) diluted with 50 mM sodium carbonate pH 9.6 to a final concentration of 250 μg/mL. The plate was incubated for 2 days at room temperature, wells that were coated with heparin were not covered to allow air dry. […] Reactions were stopped after approximately 10 minutes by adding 100 μL of 1 M HCl to each well, and absorbance was read at 450 nm. Binding scores were calculated as the ratio of the ELISA signal of the antibody (antibody-treated) to the signal of a well containing buffer instead of the primary antibody (untreated). The cutoffs considered for each binding molecule (ssDNA, KLH, insulin, dsDNA and heparin) were internally calculated, based on the average of Zymeworks Inc. produced antibodies and antibodies benchmarks published in the literature.

The target of test [3] is T2, Insulin (Homo sapiens, UniProt P01308).
T2 construct: purchased Sigma-Aldrich 19278
The test is described as follows: NS-ELISA non-specific binding, insulin. Particulars: mAb at 100 nM. As to the method: as §1, §2, §3
A general note: An ELISA detects its analyte on a solid surface through an enzyme-linked reagent.

T2 sequence (P01308 25-54 limits assumed): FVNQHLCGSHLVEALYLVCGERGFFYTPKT
T2 sequence (P01308 90-110 limits assumed): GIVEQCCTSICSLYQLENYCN

B1: v29456: humanized anti-NaPi2b IgG1/kappa antibody H1L2; VH SEQ ID NO:24, VL SEQ ID NO:29 (antibody, V domains shown)
VH: QVQLVQSGAEVKKPGASVKVSCKASGFTFTSYNVHWVRQAPGQGLEWMGAISPGNGDLSYAQKFQGRVTMTRDTSTSTVYMELSSLRSEDTAVYYCARGRTGMGAVDYWGQGTLVTVSS
VL: DVQMTQSPSSLSASVGDRVTITCRASQDVYSYLNWYQQKPGKAVKLLIYYTSRLQSGVPSRFSGSGSGTDYTLTISSLQPEDFATYYCQQYNIFPWTFGQGTKLEIK
modifications: v29452, v29456, v29460 VH (H1); v29453, v29454, v29455, v29456 VL (L2)
In the case of B1, in test [1], the “Bmax (MFI)” value is given as 78,059 MFI and the “Curve Hill Slope (h)” value came to 1.7. Besides, in test [1] (apparent Kd), the Kd was 0.65 nM. Moreover, the “NS-ELISA binding score (ratio of signal between antibody-treated and untreated), Heparin” value in test [2] is recorded as 1.06. Further, the “NS-ELISA binding score (ratio of signal between antibody-treated and untreated), Insulin” value in test [3] amounted to 1.05.
